Measured values published in patent US20230011916A1, “METHODS OF CANCER TREATMENT USING ANTI-OX40 ANTIBODIES IN COMBINATION WITH PI3 KINASE DELTA INHIBITORS” (BEIGENE, LTD., priority 2019, published 2023).
Substitutions are numbered along the chain they refer to.

B1: OX86: rat anti-mouse OX40 antibody (WO2016/057667) engineered with mouse IgG2a constant regions; VH SEQ ID NO: 32, VL SEQ ID NO: 33 (antibody, V domains shown)
VH: QVQLKESGPGLVQPSQTLSLTCTVSGFSLTGYNLHWVRQPPGKGLEWMGRMRYDGDTYYNSVLKSRLSISRDTSKNQVFLKMNSLQTDDTAIYYCTRDGRGDSFDYWGQGVMVTVSS
VL: DIVMTQGALPNPVPSGESASITCRSSQSLVYKDGQTYLNWFLQRPGQSPQLLTYWMSTRASGVSDRFSGSGSGTYFTLKISRVRAEDAGVYYCQQVREYPFTFGSGTKLEIK
modifications: mouse IgG2a constant regions
B2: ch445: Mu445 variable domains fused to human IgG1wt/kappa constant regions (antibody, V domains shown)
VH: EVQLQQSGPELVKPGASVKMSCKASGYKFTSYIIHWVKQKPGQGLEWIGYINPYNDGTRYNEKFKGKATLTSDKSSSTAYMEYSSLTSEDSAVYYCARGYYGSSYAMDYWGQGTSVTVSS
VL: DIQMTQTTSSLSASLGDRVTISCSASQGISNYLNWYQQKPDGTIKLLIYDTSTLYSGVPSRFSGSGSGTDYFLTISNLEPEDIATYYCQQYSKLPYTFGGGTKLEKK
B3: 445-1: humanized anti-OX40 antibody, human IgG1 wt, VH SEQ ID NO: 14, VL SEQ ID NO: 16 (antibody, V domains shown)
VH: QVQLVQSGAEVKKPGSSVKVSCKASGYKFTSYIIHWVRQAPGQGLEWMGYINPYNDGTRYNQKFQGRVTLTSDKSTSTAYMELSSLRSEDTAVYYCARGYYGSSYAMDYWGQGTTVTVSS
VL: DIQMTQSPSSLSASVGDRVTITCSASQGISNYLNWYQQKPGKAIKLLIYDTSTLYSGVPSRFSGSGSGTDYTLTISSLQPEDFATYYCQQYSKLPYTFGGGTKVEIK
modifications: human IgG1 constant regions; 445-1 VH pro; 445-1 VK pro
B4: 445-2: humanized anti-OX40 antibody, VH SEQ ID NO: 20, VL SEQ ID NO: 22 (antibody, V domains shown)
VH: B3 VH with D56E, N61A, S72A
VL: B3 VL with T51A, Y71F
modifications: 445-2 VH pro; 445-2 VK pro

Assays:
A20 cells = test: A20 syngeneic B cell lymphoma model in BALB/c mice; assay type: in vivo, mouse; conditions: Compound 1 10 mg/kg p.o.
Description: A20 cells are of B cell lymphoma origin. Female BALB/c mice were subcutaneously implanted with 1×10^5 A20 cells in 150 μL PBS mice in the right flank. After inoculation, mice were randomized into 4 groups with 25 animals in each group according to inoculation order. The mice were treated with vehicle (0.5% MC), OX86 (a murine specific anti-OX40 antibody), Compound 1, and the combination of OX86 and Compound 1. OX86 was given at 0.4 mg/kg once a week by intraperitoneal injection, and Compound 1 was administered at 10 mg/kg twice a day by oral gavage. Tumor volume was determined twice weekly and the TGI calculated as described above.

EMT-6 cells = test: EMT-6 syngeneic breast cancer model in BALB/c mice; assay type: in vivo, mouse
Description: EMT-6 cells are of murine breast cancer origin. Female BALB/c mice were implanted intramammary with 5×10^4 EMT-6 cells per 100 μL PBS mice in the second right papilla. After inoculation, mice were randomized into 4 groups with 25 animals in each group according to inoculation order.
The mice were treated with vehicle (0.5% MC), OX86 (a murine specific anti-OX40 antibody), Compound 1 (PI3Kdelta inhibitor), and the combination of OX86 and Compound 1, respectively. OX86 was given at 0.4 mg/kg once per week (QW) by intraperitoneal (i.p.) injection, and Compound 1 was administered at 30 mg/kg twice per day (BID) by oral gavage (p.o.). Tumor volume was determined twice weekly and tumor growth inhibition was determined using the formula described in Example 14 above.

[1] = molecular target: T1, interaction between OX40 and OX40 ligand (Mus musculus, UniProt P47741); conditions: reported in the scientific literature; cited from earlier work
T1 sequence (P47741 20-272): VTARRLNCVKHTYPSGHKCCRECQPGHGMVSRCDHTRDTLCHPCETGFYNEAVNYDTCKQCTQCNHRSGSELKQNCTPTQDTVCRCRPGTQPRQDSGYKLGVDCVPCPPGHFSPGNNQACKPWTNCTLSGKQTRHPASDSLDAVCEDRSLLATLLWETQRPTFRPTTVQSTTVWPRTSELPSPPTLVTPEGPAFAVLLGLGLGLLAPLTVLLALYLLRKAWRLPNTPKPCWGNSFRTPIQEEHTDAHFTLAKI
T1 sequence (P43488 1-198 partner): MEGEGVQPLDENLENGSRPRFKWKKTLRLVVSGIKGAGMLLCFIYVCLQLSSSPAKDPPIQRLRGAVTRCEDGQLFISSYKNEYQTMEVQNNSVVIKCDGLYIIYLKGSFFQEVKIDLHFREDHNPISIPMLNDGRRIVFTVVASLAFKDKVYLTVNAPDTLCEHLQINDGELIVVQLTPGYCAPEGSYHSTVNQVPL

[2] = molecular target: T2, recombinant OX40 protein with a His tag (Homo sapiens, UniProt P43489); test: Binding kinetics and affinity of anti-OX40 antibodies by SPR (BIAcore T-200)
T2 construct: His tag; purchased Sino Biological 10481-H08H
T2 sequence (P43489 29-277): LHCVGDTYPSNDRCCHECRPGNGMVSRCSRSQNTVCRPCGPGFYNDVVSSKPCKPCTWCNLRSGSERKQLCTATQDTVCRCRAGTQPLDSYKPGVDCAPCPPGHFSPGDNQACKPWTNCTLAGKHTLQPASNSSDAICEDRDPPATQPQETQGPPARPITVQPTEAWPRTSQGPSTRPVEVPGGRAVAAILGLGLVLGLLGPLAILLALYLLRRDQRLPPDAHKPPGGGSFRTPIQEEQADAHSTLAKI
Source text: The anti-OX40 antibodies were characterized for their binding kinetics and affinity by SPR assays using BIAcore™ T-200 (GE Life Sciences). Briefly, anti-human IgG antibody was immobilized on an activated CM5 biosensorchip (Cat: BR100530, GE Life Sciences). An antibody with human IgG Fc region was flowed over the chip surface and captured by anti-human IgG antibody. Then a serial dilution of recombinant OX40 protein with a His tag (Cat: 10481-H08H, Sino Biological) was flowed over the chip surface and changes in surface plasmon resonance signals were analyzed to calculate the association rates (ka) and dissociation rates (kd) by using the one-to-one Langmuir binding model (BIA Evaluation Software, GE Life Sciences). The equilibrium dissociation constant (KD) was calculated as the ratio kd/ka.

[3] = OX86 0.4 mg/kg QW i.p., Compound 1 30 mg/kg BID p.o.

Row | Molecule | Mean Tumor Volume on Day 26 (mean ± SEM) (A20 cells; OX86 0.4 mg/kg QW i.p.) | Tumor Free Animals at Day 47 (A20 cells; OX86 0.4 mg/kg QW i.p.) | TGI on Day 26 (A20 cells; OX86 0.4 mg/kg QW×4 i.p.) | Mean Tumor Volume on Day 22 (mean ± SEM) (EMT-6 cells; [3]) | Tumor Free Animal (EMT-6 cells; [3]) | TGI on Day 22 (EMT-6 cells; OX86 0.4 mg/kg QW×4 i.p., Compound 1 30 mg/kg BID×22 p.o.) | Blocking of the interaction between OX40 and OX40 ligand [1] | KA ([2]; Mean) | KA ([2]; Test 1) | ka ([2]; Test 1) | kd ([2]; Test 1) | KA ([2]; Test 2) | ka ([2]; Test 2) | kd ([2]; Test 2)
1 | B1 | 53.4 ± 28.7 mm^3 | 80% | 93% | 210.5 ± 43.9 mm^3 | 40% | 79% | does not block the interaction between OX40 and OX40 ligand |  |  |  |  |  |  | 
2 | B2 |  |  |  |  |  |  |  | 1.41e+08 M⁻¹ | 1.22e+08 M⁻¹ | 174000 M⁻¹ s⁻¹ | 0.00143 s⁻¹ | 1.59e+08 M⁻¹ | 265000 M⁻¹ s⁻¹ | 0.00167 s⁻¹
3 | B3 |  |  |  |  |  |  |  | 5.9e+07 M⁻¹ | 5.6e+07 M⁻¹ | 156000 M⁻¹ s⁻¹ | 0.00277 s⁻¹ | 6.1e+07 M⁻¹ | 237000 M⁻¹ s⁻¹ | 0.00389 s⁻¹
4 | B4 |  |  |  |  |  |  |  | 7.5e+07 M⁻¹ | 7.1e+07 M⁻¹ | 276000 M⁻¹ s⁻¹ | 0.0039 s⁻¹ | 7.8e+07 M⁻¹ | 206000 M⁻¹ s⁻¹ | 0.00264 s⁻¹
